Like-named read-outs stand apart in the source and are kept apart here.
Assays:
Test in all cases: fluorescence polarization
[1] = target: T1, ΔRBRi-CTCF (3xFLAG-Halo-ΔRBRi-CTCF-6xHis) (mouse, UniProt Q61164 1-575+612-736, internal_change)
T1 sequence: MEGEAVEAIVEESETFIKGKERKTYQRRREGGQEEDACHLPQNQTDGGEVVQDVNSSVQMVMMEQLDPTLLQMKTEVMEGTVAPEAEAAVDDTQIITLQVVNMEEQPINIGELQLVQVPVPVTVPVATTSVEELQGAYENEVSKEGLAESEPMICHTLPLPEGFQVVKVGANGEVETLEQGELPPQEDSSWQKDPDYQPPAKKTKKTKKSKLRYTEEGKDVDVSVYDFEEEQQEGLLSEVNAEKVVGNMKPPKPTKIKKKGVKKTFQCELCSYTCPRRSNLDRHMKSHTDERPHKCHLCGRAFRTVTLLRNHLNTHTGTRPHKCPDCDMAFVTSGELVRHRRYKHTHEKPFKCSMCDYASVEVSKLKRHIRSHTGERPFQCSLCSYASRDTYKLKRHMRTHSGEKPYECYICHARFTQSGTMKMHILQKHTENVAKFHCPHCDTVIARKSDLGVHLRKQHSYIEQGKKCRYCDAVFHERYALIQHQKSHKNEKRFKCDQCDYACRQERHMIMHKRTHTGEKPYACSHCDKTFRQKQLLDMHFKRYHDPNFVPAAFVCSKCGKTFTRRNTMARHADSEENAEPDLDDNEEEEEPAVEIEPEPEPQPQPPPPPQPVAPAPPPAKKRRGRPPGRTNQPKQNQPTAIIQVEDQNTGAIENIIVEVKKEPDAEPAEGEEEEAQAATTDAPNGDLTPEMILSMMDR

[2] = target: T2, wt-CTCF (3xFLAG-Halo-wt-CTCF-6xHis) (mouse, UniProt Q61164 1-736)
T2 sequence: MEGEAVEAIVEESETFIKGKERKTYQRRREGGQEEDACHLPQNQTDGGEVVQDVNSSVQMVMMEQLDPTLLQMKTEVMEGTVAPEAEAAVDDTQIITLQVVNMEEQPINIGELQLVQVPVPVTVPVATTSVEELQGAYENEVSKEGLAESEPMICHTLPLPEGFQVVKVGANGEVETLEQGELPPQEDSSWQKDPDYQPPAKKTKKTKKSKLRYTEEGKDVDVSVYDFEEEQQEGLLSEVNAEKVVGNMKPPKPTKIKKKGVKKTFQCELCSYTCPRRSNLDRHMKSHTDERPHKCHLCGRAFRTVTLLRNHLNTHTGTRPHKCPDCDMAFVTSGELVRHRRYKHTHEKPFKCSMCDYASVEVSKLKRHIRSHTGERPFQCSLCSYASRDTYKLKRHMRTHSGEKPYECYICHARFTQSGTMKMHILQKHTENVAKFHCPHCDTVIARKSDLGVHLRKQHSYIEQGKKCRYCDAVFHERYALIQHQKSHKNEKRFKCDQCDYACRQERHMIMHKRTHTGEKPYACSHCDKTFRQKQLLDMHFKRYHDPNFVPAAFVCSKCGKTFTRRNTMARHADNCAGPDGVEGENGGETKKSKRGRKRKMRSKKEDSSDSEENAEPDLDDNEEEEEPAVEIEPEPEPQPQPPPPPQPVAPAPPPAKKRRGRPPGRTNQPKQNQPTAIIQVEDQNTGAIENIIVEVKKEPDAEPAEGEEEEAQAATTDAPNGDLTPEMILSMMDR

[3] = target: T1, ΔRBRi-CTCF …; remark: listed apart in the source
[4] = target: T2, wt-CTCF (3xFLAG-Halo-wt-CTCF-6xHis); remark: listed apart in the source

B1: Mutated core CTCF binding site duplex (dsDNA)
DNA 1: AGGATTCTAATTTCGATCA
DNA 2: TGATCGAAATTAGAATCCT
binding result [1]: no binding
binding result [2]: no binding

B2: Core CTCF binding site duplex (dsDNA)
DNA 1: AGGACCAGCAGGGGGCGCA
DNA 2: TGCGCCCCCTGCTGGTCCT
binding result [3]: binds
binding result [4]: binds

From publication PMC7036004
